Results reported in patent publication US20250382344A1, “Soluble GLP1/GIP/NPY2 Receptor Triple Agonists” (Boehringer Ingelheim International GmH, priority 2024, published 2025).
Residue numbers refer to the chain shown, from its start. One block for each binder: values may come before it. *1 amine or outer side, *2 acyl side, *3 side chain or, on linkers, in order; H or OH if unused. Where no end group is shown, it is not given here. Side-chain parts run from the residue outwards. [ ]: non-standard residue; d: D form. The star is where a group is joined. C20 diacid = O=C(O)CCCCCCCCCCCCCCCCCCC(=O)*; C18 diacid = O=C(O)CCCCCCCCCCCCCCCCC(=O)*; γGlu = O=C(O)[C@H](CCC(=O)[*:2])N[*:1]; εLys = N[C@@H](CCCCN[*:1])C(=O)[*:2]; dOR = not defined here; Aib = CC(C)(N)C(=O)O

Columns and labels:
Experiment in all cases: cell-based or functional assay
human GLP-1 receptor = human GLP-1 receptor (human, UniProt P43220 24-463)
human GIP receptor = target: T1, human GIP receptor (human, UniProt P48546 22-466)
T1 sequence (looked up): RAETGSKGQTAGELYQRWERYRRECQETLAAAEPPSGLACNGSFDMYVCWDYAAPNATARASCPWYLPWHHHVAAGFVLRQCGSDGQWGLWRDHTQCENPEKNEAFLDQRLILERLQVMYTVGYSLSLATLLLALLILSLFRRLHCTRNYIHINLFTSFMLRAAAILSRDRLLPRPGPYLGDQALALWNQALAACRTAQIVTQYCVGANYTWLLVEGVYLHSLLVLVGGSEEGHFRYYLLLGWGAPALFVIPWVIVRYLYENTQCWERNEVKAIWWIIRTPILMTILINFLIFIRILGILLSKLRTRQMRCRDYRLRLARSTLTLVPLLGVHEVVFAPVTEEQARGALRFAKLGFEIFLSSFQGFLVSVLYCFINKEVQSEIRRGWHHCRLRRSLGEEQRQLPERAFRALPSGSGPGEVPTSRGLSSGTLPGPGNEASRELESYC

[1] = target: T2, human neuropeptide Y2 receptor (human, UniProt P49146 1-381)
T2 sequence (looked up): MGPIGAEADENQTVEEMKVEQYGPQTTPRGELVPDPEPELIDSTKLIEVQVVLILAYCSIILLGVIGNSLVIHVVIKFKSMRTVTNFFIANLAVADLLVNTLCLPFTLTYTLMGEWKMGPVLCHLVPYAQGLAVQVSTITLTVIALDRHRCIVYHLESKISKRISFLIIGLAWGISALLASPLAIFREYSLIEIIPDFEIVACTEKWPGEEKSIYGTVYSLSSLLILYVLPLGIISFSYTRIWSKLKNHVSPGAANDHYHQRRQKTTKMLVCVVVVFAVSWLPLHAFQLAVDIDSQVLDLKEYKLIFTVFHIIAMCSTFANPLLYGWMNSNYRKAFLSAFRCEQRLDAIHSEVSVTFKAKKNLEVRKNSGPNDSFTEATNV

B1: Compound 14 (peptide)
peptide: YXEGTFTSDYSIXLEKQAQXEFVRHLINKXTRQRY
modifications: Aib at 2, 13, 20, 30; Lys29 epsilon-amino acylated with C18DA-gGlu-gGlu-gGlu-gGlu-gGlu-AHX; C-terminal amide
EC50, CreLuc reporter, 0.5% hP (human GLP-1 receptor): 0.3 nM | EC50, CreLuc reporter, 0.5% hP (human GIP receptor): 0.1 nM | EC50, CreLuc reporter, 0.5% hP [1]: 16.8 nM | EC50, CreLuc reporter, 100% hP [1]: 388 nM

Binder: Y[Aib]EGTFTSDYSI[Aib]LDKQAQ[Aib]AFVRHLINK([εLys-γGlu-γGlu-γGlu-γGlu-γGlu-γGlu-γGlu-C20 diacid])[Aib]TRQ[dOR]Y-NH2 (reading uncertain) [Compound 16]
EC50, CreLuc reporter, 0.5% hP (human GLP-1 receptor): 0.7 nM | EC50, CreLuc reporter, 100% hP (human GLP-1 receptor): 1.8 nM | EC50, CreLuc reporter, 0.5% hP (human GIP receptor): 0.5 nM | EC50, CreLuc reporter, 100% hP (human GIP receptor): 2 nM | EC50, CreLuc reporter, 100% hP [1]: 59.1 nM

Binder: Y[Aib]EGTFTSDYSI[Aib]LEKQAQ[Aib]AFVRHLINK([γGlu-γGlu-γGlu-γGlu-γGlu-γGlu-C18 diacid])LTRQRY-NH2 [Compound 12]
EC50, CreLuc reporter, 0.5% hP (human GLP-1 receptor): 1.8 nM | EC50, CreLuc reporter, 0.5% hP (human GIP receptor): 0.8 nM | EC50, CreLuc reporter, 0.5% hP [1]: 47.6 nM | EC50, CreLuc reporter, 100% hP [1]: 140 nM

Now from value to binder:

EC50, CreLuc reporter, 0.5% hP (human GLP-1 receptor): 0.4 nM | EC50, CreLuc reporter, 100% hP (human GLP-1 receptor): 3.3 nM | EC50, CreLuc reporter, 0.5% hP (human GIP receptor): 0.5 nM | EC50, CreLuc reporter, 0.5% hP [1]: 7.1 nM | EC50, CreLuc reporter, 100% hP [1]: 90.6 nM
B2: Compound 74 (peptide)
peptide: B1 peptide with E15D, E21A
modifications: Aib at 2, 13, 20, 30; Lys29 epsilon-amino acylated with C20DA-gGlu-gGlu-gGlu-gGlu-gGlu-gGlu-eLys; C-terminal amide

EC50, CreLuc reporter, 0.5% hP (human GLP-1 receptor): 0.6 nM | EC50, CreLuc reporter, 100% hP (human GLP-1 receptor): 3.8 nM | EC50, CreLuc reporter, 0.5% hP (human GIP receptor): 0.5 nM | EC50, CreLuc reporter, 0.5% hP [1]: 7.2 nM | EC50, CreLuc reporter, 100% hP [1]: 52.4 nM
B3: Compound 81 (peptide)
peptide: B1 peptide with E15D, E21A, V23I
modifications: Aib at 2, 13, 20, 30; Lys29 epsilon-amino acylated with C20DA-gGlu-gGlu-gGlu-gGlu-gGlu-gGlu-eLys; C-terminal amide
